The test system of data set [1] is T1, Ah-BarR WT (Acidianus hospitalis), ORF:d4ab5e4b.
T1 sequence: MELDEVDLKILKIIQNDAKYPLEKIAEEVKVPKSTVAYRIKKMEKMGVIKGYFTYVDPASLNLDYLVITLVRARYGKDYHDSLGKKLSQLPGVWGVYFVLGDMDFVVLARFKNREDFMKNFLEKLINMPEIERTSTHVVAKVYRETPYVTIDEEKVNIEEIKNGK
Kind of data set: in-gel Cu-OP footprinting. The note with it: 20 mM Tris-HCl pH 8.0, 50 mM NaCl, 0.4 mM EDTA, 0.1 mM DTT, 1 mM MgCl2, 12.5% glycerol, 25 ug/mL salmon sperm DNA, 25 min at 37 C (EMSA). On the technique in general: In EMSA bound probe runs differently from free probe, usually more slowly.

Data set [2] has the same test system. Nature of the data set: EMSA. To be noted: 20 mM Tris-HCl pH 8.0, 50 mM NaCl, 0.4 mM EDTA, 0.1 mM DTT, 1 mM MgCl2, 12.5% glycerol, 25 ug/mL salmon sperm DNA, 25 min at 37 C (EMSA).
The subject of data set [3] is Ah-BarR WT (Acidianus hospitalis). Kind of data set: EMSA. To be noted: no beta-alanine; octamer concentration; 20 mM Tris-HCl pH 8.0, 50 mM NaCl, 0.4 mM EDTA, 0.1 mM DTT, 1 mM MgCl2, 12.5% glycerol, 25 ug/mL salmon sperm DNA, 25 min at 37 C (EMSA).
The target of data set [4] is Ah‐BarR M103N (P ah‐barR promoter, mKate2 reporter) (Acidianus hospitalis, UniProt F4B5V3, M103N). Nature of the data set: cell-based. To be noted: BS1 M103N; 5 mM glutamine, 20 mg/L naringenin (Figure A7). The format is cell-based. How it is done:
(§1) Reporter gene assays were performed as previously described (Bernauw et al., [2022]). pPRC6 and pITC variants (Table 1) were co‐transformed in E. coli MG1655 chemical competent cells using heat shock transformation. Transformant colonies of the Ah‐BarR biosensor strains were picked to inoculate wells of a transparent 96‐well plate (Greiner Bio‐One), each well filled with 200 µL of MOPS EZ Rich Defined medium (Teknova), prepared without the addition of the 5X EZ Supplement, after which the plate was incubated overnight in a ThermoMixer C (Eppendorf) at 30°C and 300 rpm. Next, a black 96‐well plate was filled with a naringenin solution prepared in ethanol (250 mg/L or 2.5 g/L), after which a Breathe‐Easy sealing membrane (Sigma‐Aldrich) was applied and the ethanol was evaporated in a ThermoMixer C (Eppendorf) at 75°C. […] Finally, the plate was sealed again using a Breathe‐Easy sealing membrane (Sigma‐Aldrich).
(§2) Plates were incubated at 30°C and 300 rpm for 40 h in a Synergy H1 microplate reader (BioTek) with measurements of OD600 and fluorescence (excitation wavelength: 588 nm, emission wavelength: 633 nm) being taken every 20 min. The gain was set to 140 for all measurements, except for the measurements with the amino acids (pools and separately), where the gain was set to 150. […] In addition, wells solely containing medium were measured as well to correct for the background signal.
(§3) Reporter expression was analyzed at t = 30 h, when all cultures had reached the stationary phase, by taking into account three subsequent time points (t–1, t, t+1). The corrected FL/OD600 value was calculated for each replicate (n = 4) as follows: FL/ODcor=FLt−1−FLmed,t−1/ODt−1−ODmed,t−1+FLt−FLmed,t/ODt−ODmed,t+FLt+1−FLmed,t+1/ODt+1−ODmed,t+1/3
(§4) Response curves were fitted to a Hill function of the shape P(M)=b+aM^n/θ^n+M^nforaβ−alanine−inducible responseb+aθ^n/θ^n+M^nforaβ−alanine−repressible response according to a previously published procedure (Landry et al., [2018]) with minor adaptations. […] Briefly, lmfit 1.1.0 was used to fit all replicates of a response curve to the appropriate Hill function using the Levenberg‐Marquardt algorithm (Moré, [1978]; Newville et al., [2016]). […] The dynamic range was estimated as μ=a/b .

Data set [5] has as its target Ah‐BarR M103T (P ah‐barR promoter, mKate2 reporter) (Acidianus hospitalis, UniProt F4B5V3, M103T). Kind of data set: cell-based. To be noted: BS1 M103T; 5 mM glutamine, 20 mg/L naringenin (Figure A7). The format is cell-based. How it is done: as §1, §2, §3, §4
Data set [6] concerns T2, Ah-BarR trunc (Acidianus hospitalis), ORF:d4ab5e4b.
T2 sequence: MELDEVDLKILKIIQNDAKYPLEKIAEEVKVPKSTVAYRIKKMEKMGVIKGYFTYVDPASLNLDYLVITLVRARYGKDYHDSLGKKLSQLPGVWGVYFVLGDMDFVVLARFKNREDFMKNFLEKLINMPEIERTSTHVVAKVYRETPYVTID
Nature of the data set: EMSA. The note with it: 20 mM Tris-HCl pH 8.0, 50 mM NaCl, 0.4 mM EDTA, 0.1 mM DTT, 1 mM MgCl2, 12.5% glycerol, 25 ug/mL salmon sperm DNA, 25 min at 37 C (EMSA).

Sequence of Ah‐BarR M103T (P ah‐barR promoter, mKate2 reporter) (F4B5V3 entry or part of it M103T): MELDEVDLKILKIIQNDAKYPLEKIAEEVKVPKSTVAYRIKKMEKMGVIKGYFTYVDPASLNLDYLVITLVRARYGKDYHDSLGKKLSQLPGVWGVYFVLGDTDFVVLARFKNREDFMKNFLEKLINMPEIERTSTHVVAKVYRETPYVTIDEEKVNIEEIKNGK
Sequence of Ah‐BarR M103N (P ah‐barR promoter, mKate2 reporter) (F4B5V3 entry or part of it M103N): as the sequence (F4B5V3 entry or part of it M103T) above, with T103N counted along it

Turning to “CCTTATACATTTTATCGACGAATAAGTTGAATATACAACTAAATAAAAAGGGATTATCTTGGAAATTATACAGAGACATTCCAAAGCAAGATTTAAACTATTGTACTTTTTACAATAGCTGTCCTAAAATACTTAAATTCCGTCTAAACTACTAGTATCGCATGGATG (double strand) [WT promoter short 168 bp]”, the binding entry in data set [1] is reported as “binds”.
In the case of “CTTTAAGTCTACCTCGTCTAGCTCCATAATATATAATTAGAAGAGGTAATTTAAACCTTATACATTTTATCGACGAATAAGTTGAATATACAATTTAATAAAAAGGGATTATCTTGGAAATTATACAGAGACATTCCAAAGCAAGATTTAAACTATTGTACTTTTTACAATAGCTGTCCTAAAATACTTAAATTCCGTCTAAACTACTAGTATCGCATGGATGAAGATGTCGTTAAATTGGTTAAAGAACATACTTTCGGAACTTGGAAAGTTC (double strand) [Promoter mutant 1 (mut1) 274 bp]”, in data set [2], the dissociation constant (Kd) (usually the equilibrium constant for the complex coming apart) was 31 nM.
In turn, WT promoter 274 bp showed a Kd in data set [3] of 12 nM.
With `NC(=O)CC[C@H](N)C(=O)O` [glutamine], the “glutamine response of reporter expression” value in data set [4] and in data set [5] was “did not lead to the acquisition of a glutamine‐specific response” throughout.
With “CTTTAAGTCTACCTCGTCTAGCTCCATAATATATAATTAGAAGAGGTAATTTAAACCTTATACATTTTATCGACGAATAAGTTGAATATACAATTTAATAAAAAGGGATTATCTTGGAAATTATATTTAGACATTCCAAAGCAAGATTTAAACTATTGTACTTTTTATTTTAGCTGTCCTAAAATACTTAAATTCCGTCTAAACTACTAGTATCGCATGGATGAAGATGTCGTTAAATTGGTTAAAGAACATACTTTCGGAACTTGGAAAGTTC (double strand) [Promoter mutant 3 (mut3) 274 bp]”, in data set [2], the binding result is listed as “no binding”.
In turn, “CTTTAAGTCTACCTCGTCTAGCTCCATAATATATAATTAGAAGAGGTAATTTAAACCTTATACATTTTATCGACGAATAAGTTGAATATACAATTTAATAAAAAGGGATTATCTTGGAAATTATATTTAGACATTCCAAAGCAAGATTTAAACTATTGTACTTTTTACAATAGCTGTCCTAAAATACTTAAATTCCGTCTAAACTACTAGTATCGCATGGATGAAGATGTCGTTAAATTGGTTAAAGAACATACTTTCGGAACTTGGAAAGTTC (double strand) [Promoter mutant 2 (mut2) 274 bp]” came in with a Kd in data set [2] of 36 nM.
Consider “CTTTAAGTCTACCTCGTCTAGCTCCATAATATATAATTAGAAGAGGTAATTTAAACCTTATACATTTTATCGACGAATAAGTTGAATATACAACTAAATAAAAAGGGATTATCTTGGAAATTATACAGAGACATTCCAAAGCAAGATTTAAACTATTGTACTTTTTACAATAGCTGTCCTAAAATACTTAAATTCCGTCTAAACTACTAGTATCGCATGGATGAAGATGTCGTTAAATTGGTTAAAGAACATACTTTCGGAACTTGGAAAGTTC (double strand) [WT promoter 274 bp]”, for which the binding entry in data set [6] and in data set [2] was “binds” each time. The compound further returned a Kd in data set [2] of 12 nM.

Source of the values: article PMC10201364 (MicrobiologyOpen, 2023).
